# In patent US20110200622A1 (SAMSUNG ELECTRONICS, published 2011):
# Target: T1, human VEGF (R&D systems, Inc.; catalog #293-VE) (human, UniProt P15692-4 27-191)
# T1 construct: Bought protein; It was biotinylated for bead panning and coated directly on the plate for the ELISAs; also called human vascular endothelial growth factor; human-derived vascular endothelial growth factor
# Test: phage ELISA on plate-immobilised human VEGF, anti-M13-HRP, OD450
# Description: E. coli XL1-Blue was infected with each of the phage clones obtained from the biopanning process, and the cells were cultured at 37° C. for 14 hours to obtain a phage solution. The VEGF was added to a 96-well microtiter plate (Nunc), and maintained at 4° C. for 18 hours to immobilize the VEGF on a surface of the plate. The plate with the immobilized VEGF was blocked with skim milk at room temperature for 1 hour, and 100 μl of the phage solution was added to the plate. Then, the phage and the VEGF were incubated together at room temperature for two hours, and washed using a PBS solution containing 0.1% Tween-20. Subsequently, an anti-M13 antibody (GE Healthcare) specifically reactive to the phage and conjugated with horseradish peroxidase (HRP) was added to the resultant product and incubated with each other at room temperature for 1 hour. Then, the plate was washed twice with a PBS solution containing 0.1% Tween-20. Lastly, 100 μl of trimethylbenzidine (TMB) (SIGMA), an HRP substrate, was added to each well of the plate to induce a color reaction. The reaction was stopped by adding 50 μl of 5N H₂SO₄ solution. The OD₄₅₀ value was read on a plate reader (Molecular Devices). […] To determine the base sequence of polynucleotides encoding the polypeptides specifically binding to the VEGF obtained from single clones of the phages, a colony polymerase chain reaction (PCR) was performed using two different primer sets (primer set SEQ ID NOS: 47 and 48; and primer set SEQ ID NOS: 49 and 50). Each primer set was used according to the origin of the Dyax polypeptide library. […] The PCR was performed using a GeneAmp PCR system 9700 (Applied Biosystem), with the following PCR conditions: 30 cycles of 94° C. for 5 minutes, 94° C. for 1 minute, 60° C. for 1 minute, and 72° C. for 1.5 minutes; 72° C. for 10 minutes; and cooling to 4° C. Subsequently, polynucleotide fragments obtained by the PCR reaction were washed and then sequenced (Solgent).
# T1 sequence (P15692 other isoform, or with tags, fused parts or gaps limits assumed): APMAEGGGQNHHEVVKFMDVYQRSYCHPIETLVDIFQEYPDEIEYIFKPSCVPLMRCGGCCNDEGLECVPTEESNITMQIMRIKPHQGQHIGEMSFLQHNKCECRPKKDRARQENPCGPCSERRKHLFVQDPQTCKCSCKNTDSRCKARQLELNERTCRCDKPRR
row,Binder,binding result
1,"EDYRFYSVW (peptide, not shown: large carriers, Tested as a phage clone in phage ELISA) [polypeptide clone number 13, displayed on phage]",binds
2,"FDKYYRDWFI (peptide, not shown: large carriers, Tested as a phage clone in phage ELISA) [polypeptide clone number 83, displayed on phage]",binds
3,"PIGQRWNRLE (peptide, not shown: large carriers, Tested as a phage clone in phage ELISA) [polypeptide clone number 68, displayed on phage]",binds
4,"PRFEMWHDDK (peptide, not shown: large carriers, Tested as a phage clone in phage ELISA) [polypeptide clone number 55, displayed on phage]",binds
5,"DFLKMYRDEK (peptide, not shown: large carriers, Tested as a phage clone in phage ELISA) [polypeptide clone number 52, displayed on phage]",binds
6,"RLFEMYPSLE (peptide, not shown: large carriers, Tested as a phage clone in phage ELISA) [polypeptide clone number 69, displayed on phage]",binds
7,"PRLSMWQNME (peptide, not shown: large carriers, Tested as a phage clone in phage ELISA) [polypeptide clone number 63, displayed on phage]",binds
8,"DRYSQYQSPM (peptide, not shown: large carriers, Tested as a phage clone in phage ELISA) [polypeptide clone number 16, displayed on phage]",binds
9,"PHQEMWQFES (peptide, not shown: large carriers, Tested as a phage clone in phage ELISA) [polypeptide clone number 78, displayed on phage]",binds
10,"MHRPWPWDMF (peptide, not shown: large carriers, Tested as a phage clone in phage ELISA) [polypeptide clone number 56, displayed on phage]",binds
11,"HDYAFYSAW (peptide, not shown: large carriers, Tested as a phage clone in phage ELISA) [polypeptide clone number 44, displayed on phage]",binds
12,"DRFSMWKNLE (peptide, not shown: large carriers, Tested as a phage clone in phage ELISA) [polypeptide clone number 66, displayed on phage]",binds
13,"SRFEMWNDIS (peptide, not shown: large carriers, Tested as a phage clone in phage ELISA) [polypeptide clone number 70, displayed on phage]",binds
14,"QRDEMYPHLN (peptide, not shown: large carriers, Tested as a phage clone in phage ELISA) [polypeptide clone number 76, displayed on phage]",binds
15,"MKSAMYHDIR (peptide, not shown: large carriers, Tested as a phage clone in phage ELISA) [polypeptide clone number 82, displayed on phage]",binds
16,"YRGVWGGYF (peptide, not shown: large carriers, Tested as a phage clone in phage ELISA) [polypeptide clone number 42, displayed on phage]",binds
17,"QMDRMFPHVG (peptide, not shown: large carriers, Tested as a phage clone in phage ELISA) [polypeptide clone number 65, displayed on phage]",binds
18,"RMGPFGTTH (peptide, not shown: large carriers, Tested as a phage clone in phage ELISA) [polypeptide clone number 40, displayed on phage]",binds
19,"QRDQQYKHMY (peptide, not shown: large carriers, Tested as a phage clone in phage ELISA) [polypeptide clone number 50, displayed on phage]",binds
20,"YGYPWSGT (peptide, not shown: large carriers, Tested as a phage clone in phage ELISA) [polypeptide clone number 34, displayed on phage]",binds
21,"ERTEMFPSAS (peptide, not shown: large carriers, Tested as a phage clone in phage ELISA) [polypeptide clone number 73, displayed on phage]",binds
